Measured values: PMC6167328, “Elucidating a role for the cytoplasmic domain in the Mycobacterium tuberculosis mechanosensitive channel of large conductance” (Scientific Reports, 2018)

Target: the molecule itself
Assay: crystal structure

B1: C-terminal domain truncation of the Mycobacterium tuberculosis mechanosensitive channel of large conductance (MtMscLΔC) (domain or fragment)
chain: MLKGFKEFLARGNIVDLAVAVVIGTAFTALVTKFTDSIITPLINRIGVNAQSDVGILRIGIGGGQTIDLNVLLSAAINFFLIAFAVYFLVVLPYNTLRKKG
notes: Residues 97-101 are not resolved in the model; also called Mt ∆C
In the case of B1, the “stoichiometry N” value is reported as 5.
